Laboratory results taken from patent publication US20060172925, “Thio-siRNA aptamers” (Board Of Regents, The University Of Texas System, published 2006).

Molecular target: VEE capsid protein (Venezuelan equine encephalitis virus, UniProt P09592 P09592:1-275)
Assay: EMSA
Settings: label: biotin

Chain of VEE capsid protein (P09592 1-275, one chain of several): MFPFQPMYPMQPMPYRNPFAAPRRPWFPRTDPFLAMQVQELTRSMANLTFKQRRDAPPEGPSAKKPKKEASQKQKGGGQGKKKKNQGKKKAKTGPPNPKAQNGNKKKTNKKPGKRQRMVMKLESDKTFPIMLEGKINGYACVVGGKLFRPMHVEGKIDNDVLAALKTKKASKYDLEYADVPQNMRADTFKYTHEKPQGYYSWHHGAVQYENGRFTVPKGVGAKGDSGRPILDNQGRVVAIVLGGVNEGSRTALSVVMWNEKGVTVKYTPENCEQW

Row | Binder | binding result
1 | GGUUGCGCCCACACGCAAACACCGCCCUUCGACAUGAGGCCCGGC (ssRNA) [KLG_M_45] | binds
2 | GGGAGCUCAGAAUAAACGCUCAAGGCCCUUGCGCCCACACGCAAGC (ssRNA) [KLG_5_46] | binds
